The subject of series [1] is MS2 coat protein. The series is described as follows: apparent KD of MS2 coat protein; designed switch direction (-1 OFF switch, 1 ON switch): 1; higher = weaker reporter binding. The settings on record: Eterna round: R98. The protocol:
(§1)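 RNA-MaP: designed FMN/MS2 RNA switches (84 nt design region) are transcribed on-chip within common flanks and titrated with SNAP-549-labelled MS2 coat protein (about 1-3000 nM) in 100 mM Tris pH 7.5, 80 mM KCl, 4 mM MgCl2, without or with 200 uM FMN. Median apparent KD per design; activation ratio = KD,OFF / KD,ON.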

Series [2] relates to MS2 coat protein. The series is described as follows: apparent KD of MS2 coat protein; higher = weaker reporter binding. The settings on record: Eterna round: R101. The protocol: as §1
For series [3], the system named is MS2 coat protein. Kind of series: apparent KD of MS2 coat protein, switch ON state; designed switch direction (-1 OFF switch, 1 ON switch): 1; higher = weaker reporter binding. The settings on record: FMN input: 0 or 200 uM; Eterna round: R93 (includes R88 designs). Summed up: (§2)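 Designed RNA switches were transcribed on-chip from Illumina sequencing clusters. SNAP-549-labelled MS2 coat protein was titrated onto them in twofold steps from 0.7 or 1.5 nM to 3 µM in 100 mM Tris-HCl pH 7.5, 80 mM KCl, 4 mM MgCl2, either without or with constant ligand. Apparent KD reflects the per-design median of normalised cluster binding-curve fits.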

In series [4] the test system is MS2 coat protein. The series is described as follows: apparent KD of MS2 coat protein, switch OFF state (with FMN for OFF switches, without FMN for ON switches); designed switch direction (-1 OFF switch, 1 ON switch): 1; higher = weaker reporter binding. The settings on record: FMN input: 0 or 200 uM; Eterna round: R93 (includes R88 designs). Summed up: as §2

This note sets out measurements from the supplement of paper PMC9170038.

Turning to “AAAACAUGAGGAUCACCCAUGUAUAGAACGGUUAAUAAAAGUGAGGAUAUACUAAAUUUUAUAUAGUAGAAGGCACUGGGUACU [JR_SSNG3_Sub010]”, the “apparent KD of MS2 coat protein” value came out at 24.7 nM in the series on MS2 coat protein [1] (input ligand: FMN 200 uM) and 17.1 nM in the series on MS2 coat protein [1] (input ligand: none).
With “AAAACAUGAGGAUCACCCAUGUAUAGAUCGAUUAUUAGGAGUGAGGAUAUGCAAGUUAUAAGGAAGCAGAAGGCACAGGGAAAA [JR_SSNG3_Sub073]”, the “apparent KD of MS2 coat protein” value was 23.2 nM in the series with MS2 coat protein [1] (input ligand: FMN 200 uM) and 23.9 nM in the series on MS2 coat protein [1] (input ligand: none).
Regarding “AAAAUGAUUUUAGGAUAUGACUCCGAAACGGAGUCAGAAGGAGGAUCACCCUUUCAAAGCUCAGCGUCGAAAGACGCUGAGCAA [#SharedSequence - ExNG1-20] (puzzle (switch architecture): Exclusion NG 1)”, the “apparent KD of MS2 coat protein” value in the series on MS2 coat protein [2] (input ligand: FMN 200 uM) worked out at 1200 nM; with MS2 coat protein [2] (input ligand: none), 201 nM.
On to “AAAUGAUAUCAGAAGGCGUGGACGAAACGUCCACGAGGAUAUGAGGAUCACCCAUGUCAGGUCAGCCUGCAAAGCAGGCUGACC [#SharedSequence - IExNG1: 7-4] (puzzle (switch architecture): Inverted Exclusion NG 1)”, for which the “apparent KD of MS2 coat protein” value came to 562 nM in the series with MS2 coat protein [2] (input ligand: FMN 200 uM) and 50.3 nM in the series on MS2 coat protein [2] (input ligand: none).
As to “AAGAUACUUACAGGAUAUAGGGCAGAGGGUGCCCUAGAAGGGUGAACAUGAGGAUCACCCAUGUAUGUAUCUGAUUAGAAGGCA [Lezaraoren]”, the “apparent KD of MS2 coat protein” value with MS2 coat protein [1] (input ligand: FMN 200 uM) turned out to be 119 nM; with MS2 coat protein [1] (input ligand: none) it was 73.2 nM.
As for “AAGCACGAAGAUUAUUAUGAAUAAACAUGAGGAUCACCCAUGUAGGAUAUCGACUCGAAUAGAGUCGAGAAGGACAAAACGUGC [#BasePairInsertion1E] (puzzle (switch architecture): Exclusion NG 3)”, the results for the “apparent KD of MS2 coat protein” value in the series with MS2 coat protein [2] (input ligand: FMN 200 uM) and in the series with MS2 coat protein [2] (input ligand: none) were 11.6 nM and 6.96 nM, respectively.
The matching figures for “AAGUGAAAUCAGAAGGGCUCCAGCAAAGCUGGAGCAGGAUAUGAGGAUCACCCAUGUCACCUGACGGUCGAAACGACCGUCAGG [#SharedSequence - IExNG1: 6-2] (puzzle (switch architecture): Inverted Exclusion NG 1)”: 521 nM and 56.9 nM.
On to “ACAGGUCGUGAGAAGGCGGAAAGCACCGUCGAAAGACGGUGCAAUUAAGAUCUUCGAGGAUCACCCGAGGAUAUCACGACCUGA [#SharedSequence - IExNG2: 15] (puzzle (switch architecture): Inverted Exclusion NG 2)”, for which the “apparent KD of MS2 coat protein” value with MS2 coat protein [2] (input ligand: FMN 200 uM) is 654 nM; in the series on MS2 coat protein [2] (input ligand: none), 75.1 nM.
With “ACAUACAUUCGAGGAUAUCGGUGAACAAAUUAACGAGAAGGCGAUAUAAUUUUUAAUCUUAUAAACAUGAGGAUCACCCAUGUA [JR_SSNG1_Sub001]”, the “apparent KD of MS2 coat protein” value with MS2 coat protein [1] (input ligand: FMN 200 uM) was 17 nM; in the series on MS2 coat protein [1] (input ligand: none), 20.9 nM.
“AGGAGAAAUGUAGGAUAUAUAUAUAUAUAUAGGCAAAGCGUAUAUAUAUAUAUAGAAGGACAUGAGGAUCACCCAUGUUUCCCU [#Lowering the energy 12] (puzzle (switch architecture): Small Loop Exclusion NG 1)”: the “apparent KD of MS2 coat protein” value in the series with MS2 coat protein [2] (input ligand: FMN 200 uM) is 9.42 nM; with MS2 coat protein [2] (input ligand: none), 10.2 nM.
Regarding “AGUGUCAUCGAGAAGGCCUCAAAAUGAGGAUCACCCAUGUUGUAAUAUGGGAGGAUAUCGAUGAUACAGCUACGUUUCGUAGCA [salish99_InSLSSNG1_020 #HINGE] (puzzle (switch architecture): Inverted Small Loop Same State NG 1)”, the entries for the “apparent KD of MS2 coat protein” value in the series with MS2 coat protein [2] (input ligand: FMN 200 uM) and in the series on MS2 coat protein [2] (input ligand: none) were 58.9 nM and 98.3 nM, respectively.
In the case of “CAGUCGACCAUAACAAGGUCGACUGACUUCUGAGGAUCACCCAGAAGGCGUCACCUAAUAGGUGACGAGGAUAUGGAGUGUAAA [#SharedSequence IExNG# - 7] (puzzle (switch architecture): Inverted Exclusion NG 3)”, the “apparent KD of MS2 coat protein” value stood at 92.7 nM in the series on MS2 coat protein [2] (input ligand: FMN 200 uM) and 32 nM in the series with MS2 coat protein [2] (input ligand: none).
Take “CAUAUAUGGUGAGGAUAUGCAAAGGAUCACCUUGUAGAAGGCAUCAGGGUAGAAGGUGCAAGGAUCACCUGUAAGGAUAUAUCC [pwkr2 ssNG1 DX.26]”: the “apparent KD of MS2 coat protein” value worked out at 412 nM with MS2 coat protein [1] (input ligand: FMN 200 uM) and 1630 nM with MS2 coat protein [1] (input ligand: none).
For “CCCUUUAGAAAAGGGACAUGAGGAUCACCCAUGUAGGCUGCACAGGAUAUCGAUCGGAGGCGGUACGAGAAGGGUGACGUCAUU [Zaarqu]”, in that order: 64 nM and 52.3 nM.
Consider “CCUGCACUUCAAGGAUAUCCAGUCGUUUCGACUGGAGAAGGUGAGGAUCACCCAUCUAGCCUGACGUUUGUCAGGCAUGCAGGU [#AddUracilToBrourdLoops 7 - Jieux - Exclusion NG1] (puzzle (switch architecture): Exclusion NG 1)”, for which the results for the “apparent KD of MS2 coat protein” value in the series with MS2 coat protein [2] (input ligand: FMN 200 uM) and in the series with MS2 coat protein [2] (input ligand: none) were 81.7 nM and 84.3 nM, respectively.
For the sequence “CGCGAACAGUUUUAAAAGAGGAUCACCCAUGUGGACUCAUGGUAGGAUAUCGGGAAGGAGGAAACCGAGAAGGGCUGGUGAGCC [salish99_SSNG3_019 #HINGE] (puzzle (switch architecture): Same State NG 3)”, the figures for the “apparent KD of MS2 coat protein” value with MS2 coat protein [2] (input ligand: FMN 200 uM) and with MS2 coat protein [2] (input ligand: none) were 18 nM and 37.5 nM, respectively.
Turning to “CGCUAUGAUGGGUGUAAUAGAGCAUAGGAUAUGCUUGUACAUGAGGAUCACCCAUGUUAUAUUUUGCAGAAGGGUGCAUUUGCG [JR #DistanceFar #Hairpin #NP SLSSNG3 Sub072] (puzzle (switch architecture): Small Loop Same State NG 3)”, the “apparent KD of MS2 coat protein” value worked out at 255 nM in the series with MS2 coat protein [2] (input ligand: FMN 200 uM) and 460 nM with MS2 coat protein [2] (input ligand: none).
Consider “CUUACUUUGUAGAAGGGUGACAUGAGGAUCACCCAUGUGCGUCGCCUGAAAGACCAGGGUACGCCACAGGAUAUACAAAGUAAG [Titerexe] (puzzle (switch architecture): Inverted Same State NG 2)”, for which the “apparent KD of MS2 coat protein” value with MS2 coat protein [2] (input ligand: FMN 200 uM) is 128 nM; in the series with MS2 coat protein [2] (input ligand: none), 28.4 nM.
Regarding “GAUUACUUCACAGGAUAUAAAAUAAAGCAGAUUUUAGAAGGGUGAGCCUCGUCGACCGCGACAUGAGGAUCACCCAUGUUGUGU [Bitetiqu]”, the figures for the “apparent KD of MS2 coat protein” value with MS2 coat protein [1] (input ligand: FMN 200 uM) and in the series with MS2 coat protein [1] (input ligand: none) were 50.8 nM and 29.3 nM, respectively.
Consider “GCAGCUAAUGCAGGAUAUCAGCACGUGUAGUGCUGAGAAGGGCACAUGAGGAUACCGACUGUGAUCAAUUAAUAUUAAUGCUGC [salish99#hingeEx3_55-58_003] (puzzle (switch architecture): Exclusion NG 1)”, for which the “apparent KD of MS2 coat protein” value was 6.87 nM with MS2 coat protein [2] (input ligand: FMN 200 uM) and 9.43 nM in the series on MS2 coat protein [2] (input ligand: none).
Turning to “GCAGCUAAUGCAGGAUAUCAGCACGUGUAGUGCUGAGAAGGGCACAUGAGGAUACUGACUGUGAUCAAUUAAUAUUAAUGCUGC [salish99#hingeEx3_55-58_004] (puzzle (switch architecture): Exclusion NG 1)”, the “apparent KD of MS2 coat protein” value in the series with MS2 coat protein [2] (input ligand: FMN 200 uM) was 9.19 nM; with MS2 coat protein [2] (input ligand: none) it was 63.5 nM.
As for “GCGGAGGGCACAGGAUAUCGUCCUUAGUUGGUACGAGAAGGGUGGCGCUGCCACAUGAGGAUCACCCAUGUGCCCAAACUAUAG [Eresgeises]”, the “apparent KD of MS2 coat protein” value turned out to be 639 nM in the series on MS2 coat protein [1] (input ligand: FMN 200 uM) and 211 nM with MS2 coat protein [1] (input ligand: none).
Consider “GCGGCCCGGGAGAAGGACAUGAGGAUCACCCAUGUCGCCGGGCCCGGGAAACCGGGCCCGGCCAUGUAGGAUAUCCCGGGCCGC [#This is a good prank] (puzzle (switch architecture): Inverted Exclusion NG 2)”, for which the “apparent KD of MS2 coat protein” value in the series with MS2 coat protein [2] (input ligand: FMN 200 uM) turned out to be 5.14 nM; with MS2 coat protein [2] (input ligand: none) it was 4.59 nM.
Regarding “UAGGGAACAGGGUAGGAUAUGCAUGGUCGUACAUGAGGAUCACCCAUGUAGCCUAGAAAAUAAAUGCAGAAGGACCAAAAGAAAA [Ononmaesra]”, the “apparent KD of MS2 coat protein” value stood at 16.5 nM in the series with MS2 coat protein [3] and 48.3 nM with MS2 coat protein [4].
For “UGAAAGGAGAGAGAGGAUAUCCAAAGGAAAACAUGAGGAUCACCCAUGUAGAAGGUAGGAAAUUGGGAGAAGGCUCAAGAAAGAG [salish99-ss2-139]”, the “apparent KD of MS2 coat protein” value in the series with MS2 coat protein [3] is 50.7 nM; in the series with MS2 coat protein [4] it was 35.4 nM.
For “UGGAGACAUGAGGAUCACCCAUGUAGAAGGAUGGGAGGAUAUACAAAGACGAGAGUCAGAGUAGAAGGCCUAGGAG [salish99-ss1-188]”, in that order: 31.3 nM and 42.8 nM.
As for “UGUAAUAUUAUAGGAUAUGGAUACGAUACGUAUCCAGAAGGGUGAUUAAACUAUAAUCUAUACAUGAGGAUCACCCAUGUUUAU [AtrosYaY10] (puzzle (switch architecture): Same State NG 1)”, the “apparent KD of MS2 coat protein” value with MS2 coat protein [2] (input ligand: FMN 200 uM) was 157 nM; with MS2 coat protein [2] (input ligand: none) it was 173 nM.
“UUCACGGCGGGAAUAAGUGGUACUCAGGAUAUGGACUAGAAAUACAUGAGGAUCACCCAUGUGUUCCAGAAGGGAGGGCAUGCG [Tisorabea] (puzzle (switch architecture): Small Loop Same State NG 3)”: the “apparent KD of MS2 coat protein” value in the series on MS2 coat protein [2] (input ligand: FMN 200 uM) came to 10.3 nM; in the series on MS2 coat protein [2] (input ligand: none), 45.6 nM.
In the case of “UUGAAUCGAAACAUGAGGAUCACCCAUGUGUUGUAAUUGACAUAGGAUAUGUAUAUACUUUUAUAAUAGAAGGAUGACGAUACU [S-state NG3 31] (puzzle (switch architecture): Same State NG 3)”, the “apparent KD of MS2 coat protein” value with MS2 coat protein [2] (input ligand: FMN 200 uM) came to 12 nM; in the series with MS2 coat protein [2] (input ligand: none), 15.8 nM.
